# Experimental data as given in patent US9205136B2, “Human aminoacyl-tRNA synthetase polypeptides useful for the regulation of angiogenesis” (THE SCRIPPS RESEARCH INSTITUTE, priority 2000, dated 2015).
# “Also recorded” adds a separate entry of the source.
# What was measured:
# PMNs [1] = test: PMN release of myeloperoxidase; assay type: cell-based, human; conditions: 1 nM sample protein, 60 minutes
# Protocol: (§1) Cells for the various cytokine assays described were prepared from acid citrate dextrose-treated blood of normal healthy volunteers. Human PMNs were isolated from the blood by centrifugation (700×g) over Histopaque 1077 and 1119 (Sigma). […] This procedure was repeated twice. Human MPs were isolated by centrifugation on Histopaque 1077 (Sigma). The mononuclear fraction was obtained, washed twice in Hanks' balanced salt solution, resuspended in RPMI-1640 medium (Sigma) containing 10% heat-inactivated fetal bovine serum (Sigma), plated in tissue culture flasks, and incubated in a 6% CO2 incubator at 37° C. for 1-2 hours (Kumagai et al., 1979, J. Immunol. Methods 29:17-25). Nonadherent cells were removed by washing the flasks three times with Hanks' balanced salt solution, and adherent cells were harvested by incubation with calcium-magnesium free phosphate-buffered saline containing 2 mM EDTA for 15 minutes at 4° C., followed by extensive washing.
# PMN release of myeloperoxidase was examined following incubation of 3×10^6 PMNs per mL with 1 nM of sample protein for 60 minutes. The generation of peroxidase was then measured by the reduction of 3,3′,5,5′-tetramethylbenzidine (Barker et al., 1982, FEBS Lett. 150:419-23). Peroxidase activity is shown in FIG. 3 as the percent of total peroxidase activity where 100% peroxidase activity is defined as the activity observed for 3×10^6 PMNs following exposure to 10 μM phorbol ester for 60 minutes. Each determination shown in FIG. 3 represents the mean of four measurements from at least three independent experiments.
# PMNs [2] = test: 125I-human mini TyrRS binding and competition assay on PMNs; conditions: 10 nM 125I-mini TyrRS, 200-fold molar excess of unlabeled ligand, on ice 2 hours
# Protocol: The interaction of human mini TyrRS and PMNs was examined in binding studies using radioiodinated TyrRS molecules (Moser et al., 1993, J. Biol. Chem. 268:7125-28). Custom radioiodination of mini TyrRS with was performed by Research & Diagnostic Antibody (Richmond, Calif.). In the binding assays, 2×10^6 PMNs were first suspended in 120 μl of RPMI-1640 medium containing 20 mM Hepes (pH 7.4) and 10 mg/ml bovine serum albumin. […] Following incubation, cells were separated from unbound radioactivity by centrifugation at approximately 8000×g for 2 minutes through 500 μL, of a 10% sucrose/phosphate-buffered saline (PBS) cushion. The supernatant was aspirated, and the cell sediment was resuspended using EcoLite (ICN Biomedicals, Irvine, Calif.) and analyzed in a scintillation counter.
# Following incubation, cells were separated from unbound radioactivity as described herein.
# MPs [3] = test: MP tissue factor production (Factor VIIa-dependent Factor Xa formation); assay type: cell-based, human; conditions: 1 nM sample protein, 4 hours
# Protocol: as §1
# MP tissue factor production was examined following incubation of 10^4 MPs with 1 nM of sample protein for 4 hours. Tissue factor activity was then inferred from measurements of Factor VIIa-dependent Factor Xa formation (Wolfson et al., 1990 J. Chromatogr., 503:277-81). Each determination shown in FIG. 2 represents the mean of four measurements from at least three independent experiments.
# MPs [4] = test: MP chemotaxis assay (ChemoTX microchemotaxis chamber); assay type: cell-based, human; conditions: sample proteins 1 nM, 3 hours
# Protocol: as §1
# MP chemotaxis assays were performed in a ChemoTX microchemotaxis chamber (Neuro Probe, Gaithersburg, Md.) containing polycarbonate filters (5 μm pores) with polyvinylpyrrolidone (PVP). MPs were suspended in RPMI-1640 medium containing 1% heat-inactivated fetal bovine serum, and 10^4 cells were added to the upper chamber. Sample proteins (1 nM) were added to the lower compartment of chemotaxis chambers, and the chambers were incubated for 3 hours. After incubation, nonmigrating cells were removed, membranes were fixed in methanol, and migrating cells were visualized with the HEMACOLOR™ stain set (EM Diagnostic Systems, Gibbstown, N.J.). Migrating cells were counted in high-power fields (HPFs). Each determination shown in FIG. 2 represents the average of nine HPF measurements.
# PMNs [5] = test: PMN chemotaxis assay (ChemoTX microchemotaxis chamber); assay type: cell-based, human; conditions: for PMN chemotaxis (PMN migration): sample proteins 1 nM, 45 min
# Protocol: as §1
# PMN chemotaxis assays were performed in a ChemoTX microchemotaxis chamber (described herein). Sample proteins (1 nM) were added to the lower compartment of chemotaxis chambers, and 10^4 PMNs were added to the upper compartment. Chambers were incubated for 45 min, and migrating cells were counted in HPFs. Each determination shown in FIG. 2 represents the average of nine HPF measurements.
# MPs [6] = test: MP TNFα production (ELISA of culture supernatant); assay type: cell-based, human; conditions: 1 nM sample protein, 14 hours
# Protocol: as §1
# MP TNFα production was examined following incubation of 10^5 MPs with 1 nM of sample protein for 14 hours. Aliquots of the culture supernatant were then assayed for TNFα production using a TNFα enzyme-linked immunosorbent assay kit (Sigma). Each determination shown in FIG. 2 represents the mean of four measurements from at least three independent experiments.
# HUVEC [7] = test: Inhibition of VEGF165-induced cell proliferation; assay type: cell-based, human; conditions: 2 μM TrpRS, 2 nM VEGF165, 72 hours
# Protocol: The angiostatic activity of TrpRS was first evaluated in experiments testing the ability of human full-length TrpRS and human mini TrpRS to inhibit human VEGF165-induced cell proliferation. Tissue culture-treated 96-well plates (Corning Costar Corp., Cambridge, Mass.) were coated with 0.1% gelatin (Sigma) overnight. Cells were then seeded in the gelatinized plates at a density of 5×10^3 cells per well in DMEM medium (Gibco-BRL) containing heat-inactivated fetal bovine serum (FBS) (10%, Sigma) and penicillin/streptomycin (100 units/mL-100 μg/mL, Sigma). The following day, the cells were treated with 2 μM of a given TrpRS in the presence of 2 nM VEGF165. After 72 hours of incubation, assays were performed by using the […] 96® aqueous one-solution cell proliferation assay kit (Promega, Madison, Wis.). Results of the inhibition assay are shown in FIG. 18 as the percentage of net proliferation of VEGF165. Each determination shown represents the mean of five experiments.
# HUVEC [8] = test: Inhibition of VEGF165-induced or mini TyrRS-induced HUVEC migration; assay type: cell-based, human; conditions: as described in Example 14, inducer not stated
# Protocol: Cell migration assays were performed using the modified Boyden chamber (6.5 mm Transwells) with polycarbonate membranes (8.0 μm pore size) (Costar Corp., Cambridge, Mass.) (Masood et al., 1999, Blood 93:1038-44). Wells were coated overnight with 25 μg/mL human fibronectin (Biosource International, Camarillo, Calif.) in PBS and then allowed to air-dry. HUVECs were suspended in Dulbecco's modified Eagle's medium (DMEM) (Gibco-BRL, Gaithersburg, Md.) containing 0.1% BSA (Sigma) and 2×10^5 cells per well were added to the upper chamber. The chemotactic stimulus (50 nM of a given TyrRS molecule or 0.5 nM of human vascular endothelial growth factor-165 (VEGF165) (Biosource International, Camarillo, Calif.)) was placed in the lower chamber, and the cells were allowed to migrate for 6 hours at 37° C. in a 6% CO2 incubator. After incubation, non-migrant cells were removed from the upper face of the Transwell membrane with a cotton swab and migrant cells, those attached to the lower face, were fixed in methanol and visualized with the HEMACOLOR® stain set (EM Diagnostic Systems, Gibbstown, N.J.). Migrating cells were counted in high-power fields (HPFs). HUVECs were suspended in media with the inhibitor for 30 minutes before placement in the chamber. Each determination shown in FIG. 16 represents the average of nine HPF measurements.
# The angiostatic activity of TrpRS was next evaluated in experiments testing the ability of human full-length TrpRS and human mini TrpRS to inhibit human VEGF165-induced or human mini TyrRS-induced cell migration. Cell migration assays were performed as described in Example 11 with full-length TrpRS or mini TrpRS added to VEGF165-induced or mini TyrRS-induced HUVEC samples. HUVEC samples were treated with 0.5 nM VEGF165, 50 nM mini TyrRS, and 500 nM of a given TrpRS. Four measurements of chemotaxis were done for each protein. Each determination shown in FIG. 19 represents the average of nine HPF measurements. […] In contrast, human full-length TrpRS had no effect on VEGF165-induced or mini TyrRS-induced HUVEC chemotaxis.
# chick CAM = test: Inhibition of VEGF165-induced or mini TyrRS-induced angiogenesis in chick CAM; assay type: in vivo; conditions: 3 μg inhibitor
# Protocol: In vivo angiogenesis assays were conducted in chick chorioallantoic membrane (CAM) (Nicolaou et al., 1998, Bioorg. Med. Chem. 6:1185-208). Ten-day-old chick embryos were purchased from Mcintyre Poultry (Lakeside, Calif.) and were incubated at 37° C. and 70% humidity. A small hole was made with a small crafts drill (Dremel, Emerson Electric, Racine, Wis.) directly over the air sac at the end of the egg. The embryos were candled to determine a location to drill a second hole directly over embryonic blood vessels. […] A window was cut in the eggshell over the dropped CAM, exposing the CAM to direct access for experimental manipulation. Cortisone acetate-treated 5 mm filter disks were soaked with a particular protein sample (25 ng of VEGF165 or 250 ng of a given TyrRS molecule) and the filter disks added directly to the CAMs, which were relatively devoid of preexisting blood vessels. The windows were sealed with sterile tape and incubated at 37° C. At 0, 24, and 48 hours following incubation, 3 μg of […] (IP-10) (R & D Systems, Minneapolis, Minn.) was topically applied to the filter disks. After 72 hours, the CAM tissue associated with the filter disk was harvested and quantified using a stereomicroscope. Angiogenesis was assessed as the number of visible blood vessel branch points within the defined area of the filter disks. Each determination shown in FIG. 17 represents the mean from 5-8 embryos.
# The angiostatic activity of human full-length TrpRS and human mini TrpRS was also analyzed in in vivo angiogenesis assays conducted in chick CAM. In vivo angiogenesis assays were performed as described in Example 12 with 3 μg of full-length TrpRS or mini TrpRS added to VEGF165-induced or mini TyrRS-induced CAM tissue.
Molecule,PMN release of myeloperoxidase (PMNs [1]),inhibition of 125I-mini TyrRS binding to PMNs by unlabeled ligand (PMNs [2]),MP tissue factor production (MPs [3]),MP chemotaxis (MP migration) (MPs [4]),concentration dependence of PMN migration (PMNs [5]),PMN chemotaxis (PMN migration) (PMNs [5]),MP TNFα production (MPs [6]),inhibition of VEGF165-induced cell proliferation (HUVEC [7]),inhibition of HUVEC migration (HUVEC [8]),"inhibition of VEGF165-induced angiogenesis in chick CAM (chick CAM; 25 ng VEGF165, 72 hours)","inhibition of mini TyrRS-induced angiogenesis in chick CAM (chick CAM; 250 ng mini TyrRS, 72 hours)"
"TyrRS carboxyl-terminal domain: residues 359-528 of full-length TyrRS (protein, His6 tag; Human TyrRS carboxyl-terminal domain in pET20B, residues 359-528 of full-length TyrRS) MPEEVIPSRLDIRVGKIITVEKHPDADSLYVEKIDVGEAEPRTVVSGLVQFVPKEELQDRLVVVLCNLKPQKMRGVESQGMLLCASIEGINRQVEPLDPPAGSAPGEHVFVKGYEKGQPDEELKPKKKVFEKLQADFKISEECIAQWKQTNFMTKLGSISCKSLKGGNISLEHHHHHH",induced the release of myeloperoxidase in PMNs,neither the TyrRS carboxyl-terminal domain nor EMAP II inhibited,stimulated production,induced MP migration to an extent comparable with that observed for EMAP II,bell-shaped concentration dependence,induced PMN migration,stimulated production,,,,
"E. coli TyrRS: E. coli tyrosyl-tRNA synthetase, similar in size to human mini TyrRS (protein) MASSNLIKQLQERGLVAQVTDEEALAERLAQGPIALYCGFDPTADSLHLGHLVPLLCLKRFQQAGHKPVALVGGATGLIGDPSFKAAERKLNTEETVQEWVDKIRKQVAPFLDFDCGENSAIAANNYDWFGNMNVLTFLRDIGKHFSVNQMINKEAVKQRLNREDQGISFTEFSYNLLQGYDFACLNKQYGVVLQIGGSDQWGNITSGIDLTRRLHQNQVFGLTVPLITKADGTKFGKTEGGAVWLDPKKTSPYKFYQFWINTADADVYRFLKFFTFMSIEEINALEEEDKNSGKAPRAQYVLAEQVTRLVHGEEGLQAAKRITECLFSGSLSALSEADFEQLAQDGVPMVEMEKGADLMQALVDSELQPSRGQARKTIASNAITINGEKQSDPEYFFKEEDRLFGRFTLLRRGKKNYCLICWK",inactive in all of the assays,did not inhibit the binding,inactive in all of the assays,inactive in all of the assays,,inactive in all of the assays; also recorded: no chemotaxis was observed,inactive in all of the assays,,,,
"inactive TrpRS: minor PMN elastase fragment of TrpRS, amino-terminal residue at position 94 of full-length TrpRS (protein, His6 tag; Human inactive TrpRS in pET20B, minor PMN elastase fragment of TrpRS, amino-terminal residue at position 94 of full-length TrpRS) MSAKGIDYDKLIVRFGSSKIDKELINRIERATGQRPHHFLRRGIFFSHRDMNQVLDAYENKKPFYLYTGRGPSSEAMHVGHLIPFIFTKWLQDVFNVPLVIQMTDDEKYLWKDLTLDQAYGDAVENAKDIIACGFDINKTFIFSDLDYMGMSSGFYKNVVKIQKHVTFNQVKGIFGFTDSDCIGKISFPAIQAAPSFSNSFPQIFRDRTDIQCLIPCAIDQDPYFRMTRDVAPRIGYPKPALLHSTFFPALQGAQTKMSASDPNSSIFLTDTAKQIKTKVNKHAFSGGRDTIEEHRQFGGNCDVDVSFMYLTFFLEDDDKLEQIRKDYTSGAMLTGELKKALIEVLQPLIAEHQARRKEVTDEIVKEFMTPRKLSFDFQKLAAALEHHHHHH",,,,,,,,did not exhibit angiostatic activity,did not exhibit angiostatic activity,did not exhibit angiostatic activity,did not exhibit angiostatic activity
